Laboratory results reported in the supplement of paper PMC10567573.

B1: DVL3 (parent)
chain: YNPHPGFPELGYSYGGGSASSQHS
B2: POMT2 (parent)
chain: YHEAPMTRKHYQVTGYGINGTGDS

Variants of: B1
Assay: protein stability index of a GFP-peptide fusion (GPS, HEK-293T) (PSI 1-6); higher = more stable
Settings: c terminus: a fixed tail appended
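Further: lentivirally expressed fusions sorted by FACS into six bins by GFP to DsRed ratio, PSI derived from sequencing read proportions per bin multiplied by bin number.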

Protein stability index: each site, then its substitutions
N2: Y 2.87, A 1.96, E 3.75, R 3.09, V 1.82, Q 2.33, F 2.32, D 3.64, T 2.23, S 2.72, M 2.55, P 1.97, C 2.12, I 2.37, W 2.48, H 3.33, K 3.28, G 3.06, L 2.16
H4: P 2.29, F 2.16, L 2.77, W 2.44, Y 2.35, K 3.61, T 2.34, R 2.8, E 2.7, A 2.06, D 3.9, M 2.69, G 2.01, Q 2.56, V 2.75, S 2.1, N 2.73, I 2.51, C 2.58
F7: D 2.44, E 2.7, N 3.38, G 3, H 2.98, I 2.87, K 3.68, C 2.85, P 3.44, L 3.35, M 3.19, A 2.6
P3: E 2.75, Q 3.05, V 3.08, R 3.17, G 2.19, D 2.81, C 3.32, H 2.95, L 3.46, T 3.08, F 2.7, S 2.67, M 3.01, I 2.86, A 3.07, Y 3.18, W 2.51, K 3.43, N 2.79
G6: H 2.67, M 2.74, E 3.84, K 3.05, I 2.38, T 2.28, L 2.48, F 2.42, N 2.93, W 1.74, V 2.7, Y 2.17, A 2.78, Q 3.44, D 3.14, S 2.69, C 2.53, R 2.46
P5: A 2.58, T 2.36, R 2.37, S 2.64, D 3.67, Q 3.26, N 2.75, E 3.27, F 2.44, K 2.31, C 2.22, H 2.36, M 2.31, G 2.32, I 2.4, L 2.59, W 2.2, Y 2.35, V 2.41
Y1: H 3.39, G 4.47, V 3.12, D 4.18, C 2.33, T 4.25, I 3, K 3.94, M 3.37, W 3.49, E 4.73, R 3.52, S 3.75, Q 4.53, A 4.36, F 2.16, N 4.11, L 3.88, P 4.24

Variants of: B2
Assay: as above
Settings: c terminus: a fixed tail appended

Protein stability index, by site and new letter:
T14: E 2.96, P 2.54, S 2.03, K 1.97, C 3.13, A 1.85, Y 1.54, Q 2.87, N 2.39, W 1.41, F 2.57, D 3.36, V 1.84, I 2.12, L 1.99, R 2.13, H 2.53, G 3.05, M 2.05
S24: H 1.99, Y 2.1, W 1.49, V 2.44, Q 1.68, K 2.57, A 2.15, E 2.29, G 2.57, M 1.79, C 1.81, I 2.16, D 2.41, N 2.11, L 1.64, R 2.17, P 2.23, T 1.98, F 1.76
N19: P 2.4, A 1.8, L 2.06, G 2.4, E 1.9, H 2.25, C 2.02, S 2.3, M 2.62, F 2.3, Q 1.84, R 1.73, Y 2.57, T 2.21, D 1.88, V 2.03, I 1.9, K 2.44, W 2.24
Y16: P 2.92, L 1.97, I 2.47, N 2.43, W 1.75, G 2.9, T 2.53, K 3.2, M 2.3, D 3.66, F 1.75, R 3.36, V 2.47, C 2.51, Q 2.26, S 2.67, H 2.79, A 2.48, E 3.3
G22: R 1.92, Q 2.28, E 2.35, T 1.95, M 2.04, V 2.25, I 1.68, C 1.91, W 1.7, S 2.36, P 3.15, D 2.17, H 2.44, F 2.3, Y 2.15, K 2.29, A 2.26, N 2.18, L 2.28
T21: I 1.37, Q 2.12, N 2.58, M 2.01, S 2.19, P 2.25, K 2.3, L 2.1, A 2.56, R 2.6, E 2.04, H 2.23, Y 1.76, C 2.4, G 1.83, D 2.46, F 2.11, W 2.15, V 1.37
G17: H 2.06, K 2.13, N 2.03, Q 1.75, C 2.41, L 2.5, W 2.6, M 1.84, F 1.79, I 1.84, E 2.73, T 2.24, D 2.51, S 1.62, A 1.9, P 2.87, V 2.08, Y 2.26, R 2.37
G20: T 2.43, M 1.98, E 2.4, K 2.08, V 1.98, I 2.03, Y 2.39, R 2.16, Q 2.43, L 2.21, D 2.18, C 1.86, P 2.24, F 2.35, H 2.26, N 2.47, A 2.45, W 2.12, S 2.36
G15: S 2.14, Q 1.88, C 2.01, V 1.44, E 3.36, W 2.28, A 2.25, R 2.02, I 1.59, H 2.63, T 2.78, D 2.31, N 2.04, K 2.71, L 1.51, M 2.03, F 1.19, Y 2.44, P 2.86
D23: C 2.22, A 2.02, Y 1.67, H 2.03, E 2.11, I 2.18, W 1.24, S 2.14, F 1.63, L 1.95, G 2.88, Q 2.44, N 2.17, R 1.25, M 1.66, P 2.02, V 2.42, T 1.85, K 1.99
I18: M 2.3, C 2.37, V 2.21, R 2.55, S 2.22, T 2.42, E 2.95, H 2.47, G 2.2, N 2.42, A 2.73, Y 2.07, D 2.9, P 2.36, W 1.67, K 2.78, F 2.47, L 2.64, Q 2.9
